The values below come from patent US20150238573A1, “NUTRITIONAL FOOD AND FEED, COMPOSITION, PROCESSING AND METHOD OF USE” (Nutrinia Ltd., priority 2004, published 2015).

Bounds are passed on as bounds.

Series [1] can be described thus: Stability in liquid infant formula over time (Elisa kit). Type of series: physicochemical. From the text: The InsuMeal™ is intended to be consumed immediately after solubilization in the infant formula. […] Furthermore, in order to evaluate the final product homogeneity, at each time interval, sampling was taken at the upper, middle and lower layers of the sampled RTF bottle, as well as after formula liquid stirring.

A short description of series [2]: Influence on vitamin C in the preterm RTF formula. It counts as physicochemical. To be noted: 0, 6 and 12 hours from insulin supplementation.
A short description of series [3]: Clinical trials of oral insulin in preterm infants. It counts as in vivo, human. From the text:
Clinical trials were done involving supplementation of preterm infant orally-fed with Insulin.

For Insulin, the Insulin concentration in series [1] (0 hour from insulin addition, 100 μU in 60 ml preterm RTF formula) was determined as 95.43 μU; in series [1] (3 hour from insulin addition), 105.47 μU; in series [1] (6 hour from insulin addition) it was 111.59 μU; in series [1] (9 hour from insulin addition), 93.34 μU; in series [1] (12 hour from insulin addition), 99.55 μU; in series [1] (15 hour from insulin addition) it was 105.38 μU. Besides, the Insulin concentration in series [1] (18 hour from insulin addition) is 96.74 μU; in series [1] (21 hour from insulin addition) it was 93.78 μU; in series [1] (24 hour from insulin addition) it was 104.5 μU. In series [1] (liquid infant formula), the “time highly stable after addition to liquid infant formula” value was “at least 24 hr”. Moreover, in series [2], the “vitamin C concentration in formula after insulin supplementation” value is reported as “No significant differences”. Besides, the “time to full enteral feeding” value in series [3] (4 Units per Kg. per day oral for 28 days, control 20 days) is on record as not above 11 days. The Lactase activity in series [3] (trial group, control 6.5) came to 13.3. Moreover, the Gastric residuals in series [3] (trial group, control 54) is recorded as 22.
